The values that follow come from the supplement of paper PMC7125110.

Sequences and labels used below:
B1: glmS ribozyme (parent)
chain: AUAAAAGCGCCAGAACUACAGAAAUGUAGUUGACGAGGAGGAGGUUUAUCGAAUUUUCGGCGGAUGCCUCCAAA

What all share (conditions): with glucosamine-6-phosphate
Data set [1] covers variants of B1. The data set is described as follows: self-cleavage kobs at 40 uM GlcN6P; higher = faster cleavage; RNA array. The gist of the method:
(§1)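 Barcoded ribozyme variants were transcribed in situ on sequenced MiSeq chips by E. coli RNA polymerase. At 37 °C, a hybridised Cy3 probe tracked them while glucosamine-6-phosphate (40 μM to 10 mM) in HEPES/KCl/Mg(OAc)2 buffer flowed in and tiles were imaged over ~14 h. Per-tile medians of signals normalised to baseline and to non-cleaving reference variants were fit to one- or two-exponential decays, giving kobs. kcat and KM came from weighted Michaelis–Menten fits across concentrations.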

Data set [2] covers variants of B1. Briefly: self-cleavage kobs at 640 uM GlcN6P; higher = faster cleavage; RNA array. The gist of the method: as §1
The variants in data set [3] derive from B1. Briefly: self-cleavage kobs at 2500 uM GlcN6P; higher = faster cleavage; RNA array. An outline of the steps:
as §1

Variants of B1 are the subject of data set [4]. The data set is described as follows: self-cleavage kobs at 10000 uM GlcN6P; higher = faster cleavage; RNA array. The gist of the method:
as §1

The variants in data set [5] derive from B1. The data set is described as follows: self-cleavage kobs at 160 uM GlcN6P; higher = faster cleavage; RNA array. An outline of the steps: as §1

± gives the standard error. Fewer inactive variants are shown than the library holds.

Regarding C10U A64C, in the data set with glucosamine-6-phosphate [1], the “self-cleavage kobs at 40 uM GlcN6P” value was less than 1e-05 s⁻¹. Moreover, the “self-cleavage kobs at 640 uM GlcN6P” value with glucosamine-6-phosphate [2] was less than 1e-05 s⁻¹. Also, the “self-cleavage kobs at 2500 uM GlcN6P” value with glucosamine-6-phosphate [3] is less than 1e-05 s⁻¹.

Take G40C G59U C68A C71A: in the data set with glucosamine-6-phosphate [1], the “self-cleavage kobs at 40 uM GlcN6P” value is less than 1e-05 s⁻¹.

Regarding G38U U55C C67G, in the data set with glucosamine-6-phosphate [1], the “self-cleavage kobs at 40 uM GlcN6P” value is less than 1e-05 s⁻¹. Besides, the “self-cleavage kobs at 640 uM GlcN6P” value in the data set with glucosamine-6-phosphate [2] is less than 1e-05 s⁻¹.

For the variant A42C G43C C50U C67U, in the data set with glucosamine-6-phosphate [1], the “self-cleavage kobs at 40 uM GlcN6P” value is less than 1e-05 s⁻¹.

Take A39G U49C A52G G63U C68G: in the data set with glucosamine-6-phosphate [1], the “self-cleavage kobs at 40 uM GlcN6P” value was less than 1e-05 s⁻¹.

For C34G A39U, in the data set with glucosamine-6-phosphate [1], the “self-cleavage kobs at 40 uM GlcN6P” value is less than 1e-05 s⁻¹. The “self-cleavage kobs at 640 uM GlcN6P” value with glucosamine-6-phosphate [2] is less than 1e-05 s⁻¹. In the data set with glucosamine-6-phosphate [3], the “self-cleavage kobs at 2500 uM GlcN6P” value was less than 1e-05 s⁻¹. The “self-cleavage kobs at 10000 uM GlcN6P” value with glucosamine-6-phosphate [4] is less than 1e-05 s⁻¹.

On to A12C G59U C68G, for which the “self-cleavage kobs at 40 uM GlcN6P” value with glucosamine-6-phosphate [1] was less than 1e-05 s⁻¹.

For G7A A14C G40A U49A C71U, in the data set with glucosamine-6-phosphate [1], the “self-cleavage kobs at 40 uM GlcN6P” value was less than 1e-05 s⁻¹.

Take G43C U46A: the “self-cleavage kobs at 40 uM GlcN6P” value in the data set with glucosamine-6-phosphate [1] was less than 1e-05 s⁻¹. For the same variant, the “self-cleavage kobs at 2500 uM GlcN6P” value with glucosamine-6-phosphate [3] is less than 1e-05 s⁻¹. Also, the “self-cleavage kobs at 10000 uM GlcN6P” value with glucosamine-6-phosphate [4] is less than 1e-05 s⁻¹.

Turning to C10U A36U U65G, in the data set with glucosamine-6-phosphate [1], the “self-cleavage kobs at 40 uM GlcN6P” value was less than 1e-05 s⁻¹.

For C10U A12C A53C, the “self-cleavage kobs at 40 uM GlcN6P” value with glucosamine-6-phosphate [1] was less than 1e-05 s⁻¹.

In the case of U31G U56G, the “self-cleavage kobs at 40 uM GlcN6P” value in the data set with glucosamine-6-phosphate [1] came out at 0.000123 ± 2.1e-05 s⁻¹. Further, in the data set with glucosamine-6-phosphate [5], the “self-cleavage kobs at 160 uM GlcN6P” value was found to be 0.000145 ± 4e-05 s⁻¹. The “self-cleavage kobs at 640 uM GlcN6P” value with glucosamine-6-phosphate [2] amounted to 0.000347 ± 8.2e-05 s⁻¹. In addition, the “self-cleavage kobs at 2500 uM GlcN6P” value in the data set with glucosamine-6-phosphate [3] is 0.00132 ± 0.00034 s⁻¹. In the data set with glucosamine-6-phosphate [4], the “self-cleavage kobs at 10000 uM GlcN6P” value came out at 0.00342 ± 0.00086 s⁻¹.

On to C8G G62U, for which the “self-cleavage kobs at 40 uM GlcN6P” value in the data set with glucosamine-6-phosphate [1] is less than 1e-05 s⁻¹. In addition, in the data set with glucosamine-6-phosphate [5], the “self-cleavage kobs at 160 uM GlcN6P” value is less than 1e-05 s⁻¹. The “self-cleavage kobs at 640 uM GlcN6P” value with glucosamine-6-phosphate [2] is less than 1e-05 s⁻¹. Moreover, the “self-cleavage kobs at 2500 uM GlcN6P” value with glucosamine-6-phosphate [3] is less than 1e-05 s⁻¹.

As to A6G G40C U47G U49G C58G C68A, in the data set with glucosamine-6-phosphate [1], the “self-cleavage kobs at 40 uM GlcN6P” value is less than 1e-05 s⁻¹. Further, in the data set with glucosamine-6-phosphate [4], the “self-cleavage kobs at 10000 uM GlcN6P” value is less than 1e-05 s⁻¹.

For the variant G51C A64G C68A, in the data set with glucosamine-6-phosphate [1], the “self-cleavage kobs at 40 uM GlcN6P” value was less than 1e-05 s⁻¹. The “self-cleavage kobs at 10000 uM GlcN6P” value with glucosamine-6-phosphate [4] was less than 1e-05 s⁻¹.

As for C10G U47C U54C, in the data set with glucosamine-6-phosphate [1], the “self-cleavage kobs at 40 uM GlcN6P” value is less than 1e-05 s⁻¹. In addition, in the data set with glucosamine-6-phosphate [3], the “self-cleavage kobs at 2500 uM GlcN6P” value is less than 1e-05 s⁻¹.

For C10G G41U, the “self-cleavage kobs at 40 uM GlcN6P” value with glucosamine-6-phosphate [1] was less than 1e-05 s⁻¹. Also, in the data set with glucosamine-6-phosphate [5], the “self-cleavage kobs at 160 uM GlcN6P” value is less than 1e-05 s⁻¹. Besides, the “self-cleavage kobs at 640 uM GlcN6P” value with glucosamine-6-phosphate [2] is less than 1e-05 s⁻¹. Also, the “self-cleavage kobs at 2500 uM GlcN6P” value with glucosamine-6-phosphate [3] was less than 1e-05 s⁻¹. For the same variant, in the data set with glucosamine-6-phosphate [4], the “self-cleavage kobs at 10000 uM GlcN6P” value is less than 1e-05 s⁻¹.

For the variant G29A G51A, the “self-cleavage kobs at 40 uM GlcN6P” value with glucosamine-6-phosphate [1] was less than 1e-05 s⁻¹. Moreover, the “self-cleavage kobs at 10000 uM GlcN6P” value with glucosamine-6-phosphate [4] was less than 1e-05 s⁻¹.

As to G7A C50G C68A, in the data set with glucosamine-6-phosphate [1], the “self-cleavage kobs at 40 uM GlcN6P” value came to 9.01e-05 ± 1.9e-05 s⁻¹. For the same variant, in the data set with glucosamine-6-phosphate [4], the “self-cleavage kobs at 10000 uM GlcN6P” value stood at 0.000134 ± 2.4e-05 s⁻¹.

With G9A C34U, in the data set with glucosamine-6-phosphate [1], the “self-cleavage kobs at 40 uM GlcN6P” value is less than 1e-05 s⁻¹. The “self-cleavage kobs at 640 uM GlcN6P” value in the data set with glucosamine-6-phosphate [2] is less than 1e-05 s⁻¹. For the same variant, the “self-cleavage kobs at 10000 uM GlcN6P” value with glucosamine-6-phosphate [4] was less than 1e-05 s⁻¹.

As for A6C C10U A33G G41U U47G U55C, the “self-cleavage kobs at 40 uM GlcN6P” value with glucosamine-6-phosphate [1] was less than 1e-05 s⁻¹. Also, the “self-cleavage kobs at 640 uM GlcN6P” value with glucosamine-6-phosphate [2] was less than 1e-05 s⁻¹. In the data set with glucosamine-6-phosphate [4], the “self-cleavage kobs at 10000 uM GlcN6P” value is less than 1e-05 s⁻¹.

In the case of C11G A33G G40C, the “self-cleavage kobs at 40 uM GlcN6P” value with glucosamine-6-phosphate [1] was less than 1e-05 s⁻¹. In addition, the “self-cleavage kobs at 10000 uM GlcN6P” value with glucosamine-6-phosphate [4] was less than 1e-05 s⁻¹.

In the case of C16U U31A A36G, the “self-cleavage kobs at 40 uM GlcN6P” value in the data set with glucosamine-6-phosphate [1] is less than 1e-05 s⁻¹.

U56C G60U C68U: the “self-cleavage kobs at 40 uM GlcN6P” value with glucosamine-6-phosphate [1] was less than 1e-05 s⁻¹.

For C10U A52C, the “self-cleavage kobs at 40 uM GlcN6P” value in the data set with glucosamine-6-phosphate [1] is less than 1e-05 s⁻¹. Also, in the data set with glucosamine-6-phosphate [4], the “self-cleavage kobs at 10000 uM GlcN6P” value was less than 1e-05 s⁻¹.

Consider C11A A36U G62C C71G, for which the “self-cleavage kobs at 40 uM GlcN6P” value with glucosamine-6-phosphate [1] is less than 1e-05 s⁻¹. Further, the “self-cleavage kobs at 160 uM GlcN6P” value with glucosamine-6-phosphate [5] is less than 1e-05 s⁻¹. For the same variant, the “self-cleavage kobs at 10000 uM GlcN6P” value with glucosamine-6-phosphate [4] is less than 1e-05 s⁻¹.

On to A15C U49A, for which the “self-cleavage kobs at 40 uM GlcN6P” value in the data set with glucosamine-6-phosphate [1] is less than 1e-05 s⁻¹. For the same variant, the “self-cleavage kobs at 640 uM GlcN6P” value with glucosamine-6-phosphate [2] was less than 1e-05 s⁻¹. Also, in the data set with glucosamine-6-phosphate [4], the “self-cleavage kobs at 10000 uM GlcN6P” value was less than 1e-05 s⁻¹.

Turning to C34U G38C, the “self-cleavage kobs at 40 uM GlcN6P” value with glucosamine-6-phosphate [1] is less than 1e-05 s⁻¹. Moreover, the “self-cleavage kobs at 160 uM GlcN6P” value with glucosamine-6-phosphate [5] was less than 1e-05 s⁻¹. Moreover, in the data set with glucosamine-6-phosphate [2], the “self-cleavage kobs at 640 uM GlcN6P” value is less than 1e-05 s⁻¹. In the data set with glucosamine-6-phosphate [4], the “self-cleavage kobs at 10000 uM GlcN6P” value is less than 1e-05 s⁻¹.
